From patent US7560106B2, “Rationally designed heparinases derived from heparinase I and II and methods of sequencing therewith” (Massachusetts Institute of Technology, priority 1998, dated 2009)

T1: heparinase II (Pedobacter heparinus, UniProt C6XZB6)
T1 sequence (C6XZB6 26-772): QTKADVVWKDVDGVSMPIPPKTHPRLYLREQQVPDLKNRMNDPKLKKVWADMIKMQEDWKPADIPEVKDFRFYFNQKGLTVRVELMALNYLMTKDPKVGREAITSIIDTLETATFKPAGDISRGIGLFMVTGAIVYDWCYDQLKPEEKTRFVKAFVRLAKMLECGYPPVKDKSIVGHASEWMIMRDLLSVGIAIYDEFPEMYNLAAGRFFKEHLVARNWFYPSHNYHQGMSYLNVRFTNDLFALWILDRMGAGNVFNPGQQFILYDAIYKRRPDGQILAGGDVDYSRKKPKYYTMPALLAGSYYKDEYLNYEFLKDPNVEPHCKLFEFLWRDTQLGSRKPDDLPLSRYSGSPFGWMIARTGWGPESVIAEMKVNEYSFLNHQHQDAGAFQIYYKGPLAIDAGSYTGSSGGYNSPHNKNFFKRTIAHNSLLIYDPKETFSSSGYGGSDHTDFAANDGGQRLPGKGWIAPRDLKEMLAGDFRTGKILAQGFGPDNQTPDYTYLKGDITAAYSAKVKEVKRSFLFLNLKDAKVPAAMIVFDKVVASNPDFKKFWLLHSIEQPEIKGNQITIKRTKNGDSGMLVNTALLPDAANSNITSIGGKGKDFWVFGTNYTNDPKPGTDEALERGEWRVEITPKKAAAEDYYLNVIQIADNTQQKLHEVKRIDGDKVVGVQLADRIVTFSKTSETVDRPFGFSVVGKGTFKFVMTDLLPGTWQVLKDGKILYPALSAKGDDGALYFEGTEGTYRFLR


Legend:
heparinase II [1] = molecular target: T1, heparinase II; test: 4-VP, NEM, IAA and IAM inactivation of heparinase II; format: biochemical, Flavobacterium heparinum
Description: 4-VP, NEM IAA, and AM Inactivation Heparinase II (100 μg/ml) was incubated with varying concentrations of either 4-VP, NEM, IAA or IAM (Lundblad, R. L. (1995) Techniques in Protein Modification. pp. 63-91, CRC Press, Boca Raton). Aqueous stock solutions ([…]) of each reagent was prepared immediately before use. For NEM and 4-VP the concentrations of modifying reagent were varied from 0.2-2 mM. In the case of IAA or IAM, the concentrations of the reagent ranged from 1-10 mM. All reactions were conducted in 50 mM sodium-phosphate buffer, pH 7.0, at room temperature. The time course of inactivation was monitored in each case, time courses for each of the reagents were compared using either heparin or heparan sulfate as the substrate.

heparinase II [2] = molecular target: T1, heparinase II; test: DTNB modification and inactivation of heparinase II; format: biochemical, Flavobacterium heparinum
Description: (§1) Heparinase II Activity Assay. Native heparinase II from Flavobacterium heparinum, was purified as described previously (Godavarti, R., and Sasisekharan, R (1996c) Biochem. Biophys. Res. Comm. 229, 770-777). The UV 232 nm assay to quantify native heparinase II enzymatic activity was similar to that reported for heparinase I (Bernstein, H., Yang, V. C., Cooney, C. L., Langer, R. (1988) Meth. Enzym. 137, 515-29). Briefly, the course of the reaction is monitored by measuring the increase in absorbance at 232 nm as a function of time under saturating substrate concentrations. With heparin as the substrate, the reaction was carried out at a concentration of 4 mg/ml in 50 mM sodium phosphate buffer, pH 7.3. With 2 mg/ml heparan sulfate, the reaction was measured in 50 mM sodium phosphate buffer, pH 6.9 (Sasisekharan, R., Moses, M. A., Nugent, M. A., Cooney, C. L., Langer, R. (1994) Proc. Natl. Acad. Sci., USA 91, 1524-1528). The temperature for all enzymatic activity measurements was kept constant at 35° C.
DTNB Modification Studies. (A) Inactivation with DTNB. Heparinase II (100 μg/ml) was incubated with DTNB (0.1-0.5 mM). A DTNB stock solution was made by dissolving DTNB in ethanol and an aliquot was added to the reaction mixture (Lundblad, R. L. (1995) Techniques in Protein Modification. pp. 63-91, CRC Press, Boca Raton).
(B) Quantification of DTNB—modified residues of heparinase II. Quantification of DTNB-modified heparinase II residues was determined by difference spectra. At time zero, 2 mM DTNB was added to the sample cuvette containing heparinase II (825 μg/ml) in sodium phosphate buffer, pH 7.0. The change in absorbance at 410 nm was monitored every. 30 seconds for 10 minutes. To account for the decomposition of DTNB in the reaction mixture, a control was also done by monitoring the change in absorbance at 410 nm with only DTNB (2 mM) in 50 mM sodium phosphate buffer, pH 7.0. Heparinase II activity assays were also performed on the reaction mixture. The number of heparinase II cysteine residues modified was determined using ∈=13,600 M cm^−1 (Lundblad, R. L. (1995) Techniques in Protein Modification. pp. 63-91, CRC Press, Boca Raton). A similar experiment was completed after preincubating the enzyme with heparin for 30 minutes.

[3] = Heparinase I activity as a function of calcium concentration (K0.5, calcium dependence); format: biochemical
Description: (§2) Heparinase I Activity Assays: The UV 232 nm assay was used as described in Example 1. When measuring the enzyme activity as a function of heparin concentration, heparin concentrations varied from 0 to 4 mg/ml at a fixed calcium concentration of 5 mM (100 mM MOPS buffer/5 mM calcium acetate, pH 7.0). The data was then fit to an non-linear equation to determine Kcat and Km of heparinases I. Heparinase mutant activity was also investigated as a function of calcium concentration ranging from 0 to 10 mM. […] Activity is expressed as IU-μmol product formed/min using ∈=−3800-M^−1CM^−1.

[4] = Heparin-POROS affinity chromatography; format: binding; conditions: for NaCl: salt concentration at which enzyme elutes from heparin-POROS column, 10 mM Tris, 1 mM EDTA pH 7.0
Description: Heparin-POROS chromatography: About 30-40 μg of -L r-heparinase I and the various mutant enzymes were injected into a heparin POROS (4.6 mm×100) column (PerSeptive BioSystems, Framingham, Mass.) connected to BioCAD system (PerSeptive BioSystems). Proteins were eluted using a linear gradient of […] NaCl in 10 min (10 mM Tris, 1 mM EDTA pH 7.0) and monitored at 210 nm. EDTA was added to chelate any calcium ions that may be present in the buffers.

[5] = Heparinase I UV 232 nm activity assay as a function of heparin concentration (Kcat, Km); format: biochemical, porcine; conditions: heparin 0 to 4 mg/ml, 5 mM calcium acetate, pH 7.0; for Kcat: 100 mM MOPS
Description: as §1
Heparinase I Activity Assay. The UV 232 nm assay to quantify heparinase I enzymatic activity was similar to that described in Example 1. With heparin as the substrate, the reaction was carried out at a concentration of 4 mg/ml in 100 mM MOPS, 5 mM calcium acetate, pH 7.0. The temperature for all enzymatic activity measurements was kept constant at 30° C. For the inactivation kinetic profiles, activity was measured as outlined above at precise time points.
as §2

[6] = Fluorescence competition for calcium with probe rhod-5N; conditions: apparent dissociation constant of rhod-5N for calcium with 3 μM enzyme; lower Kd′ means less binding of calcium by heparinase I
Description: Fluorescence Competition. To determine the effect of mutations in CB-1 and CB-2 on the ability of heparinase I to bind calcium, mutants with a dramatic drop in activity were tested for their ability to bind calcium. To accomplish this, we examined the ability of heparinase I and mutants to compete for free calcium with the calcium-chelating fluorescence probe rhod-5N. The fluorescence probe rhod-5N was dissolved and diluted in buffer A (10 mM MOPS and 100 mM KCl, pH 6.5). Buffer A and the water used in the study were run through a Chelex Resin column to remove trace amounts of calcium. In the absence of calcium, rhod-5N is not fluorescent, however upon binding calcium rhod-5N is fluorescent with an emission λmax of 576 nm. Before titration, rhod-5N and heparinase I were added to a quartz cuvette such that the final concentration of rhod-5N in the cuvette was 0.3 μM and heparinase I is 3 μM. To this solution was added aliquots of a calcium solution (20 mM) which had been previously equilibrated with 0.3 μM rhod-5N and 3 μM heparinase I. The stock was added such that the calcium concentration in the cuvette was 50, 100, 200, 500, 1000, 5000 μM. After allowing the solution to come to equilibrium, the sample was scanned from 560 nm to 600 nm with the excitation wavelength fixed at […]. The plot of I/Imax versus [Ca^++] was fitted to a non-linear equation to determine the apparent Kd (Kd′) value. Thus, Kd′ values represent the apparent dissociation constants for the fluorescence probe rhod-5N. Control samples without heparinase I were included in the study.

[7] = 2 mM DTNB, 10 minutes, enzyme preincubated with heparin
[8] = 2 mM DTNB, 10 minutes, without heparin preincubation
[9] = calcium concentration at which half of the maximum enzyme activity was observed, calcium 0 to 10 mM, Table 4 first K0.5 column

Molecule | inhibition of heparinase II activity, in words (heparinase II [1]) | K0.5 ([3]; Table 4 second K0.5 column) | K0.5 [3, 9] | NaCl [4] | Kcat [5] | Km [5] | Kd [6] | also measured
C=Cc1ccncc1 [4-VP, 4-vinylpyridine] | inhibited heparinase II activity in a dose-dependent fashion | – | – | – | – | – | – | –
O=C(O)c1cc(SSc2ccc([N+](=O)[O-])c(C(=O)O)c2)ccc1[N+](=O)[O-] [DTNB, 5,5′-dithiobis-(2-nitrobenzoic acid)] | – | – | – | – | – | – | – | loss of activity (heparinase II [2]; [7]): 25%; number of cysteines modified (heparinase II [2]; [7]): 1.3 cysteines; loss of initial activity (heparinase II [2]; [8]): 80%; number of cysteines modified (heparinase II [2]; [8]): 2.4 cysteines; kinact/KI (heparinase II [2]; DTNB 0-0.5 mM, read-out: second-order rate constant of inactivation (converted)): 10.2 M⁻¹ s⁻¹
O=C(O)CI [IAA, iodoacetic acid] | least effective | – | – | – | – | – | – | –
CCN1C(=O)C=CC1=O [NEM, N-ethylmaleimide] | inhibited heparinase II activity in a dose-dependent fashion | – | – | – | – | – | – | –
G378A/Y379A: heparinase I CB-2 double mutant (protein, UniProt Q05819 22-384, looked up, variant G378A Y379A) Heparin lyase I: QQKKSGNIPYRVNVQADSAKQKAIIDNKWVAVGINKPYALQYDDKLRFNGKPSYRFELKAEDNSLEGYAAGETKGRTELSYSYATTNDFKKFPPSVYQNAQKLKTVYHYGKGICEQGSSRSYTFSVYIPSSFPDNATTIFAQWHGAPSRTLVATPEGEIKTLSIEEFLALYDRMIFKKNIAHDKVEKKDKDGKITYVAGKPNGWKVEQGGYPTLAFGFSKGYFYIKANSDRQWLTDKADRNNANPENSEVMKPYSSEYKTSTIAYKMPFAQFPKDCWITFDVAIDWTKYGKEANTILKPGKLDVMMTYTKNKKPQKAHIVNQQEILIGRNDDDGYYFKFGIYRVGNSTVPVTYNLSAASETAR | – | 90 µM | 90 µM | 489 mM | 9 s⁻¹ | 0.31 µM | 136 µM | elution salt concentration / heparin binding relative to wild-type r-heparinase I, in words [4]: comparable to wild-type r-heparinase I
-L: wild-type recombinant heparinase I expressed without the putative F. heparinum leader sequence (protein, UniProt Q05819 22-384, looked up, recombinant, without leader sequence) Heparin lyase I: QQKKSGNIPYRVNVQADSAKQKAIIDNKWVAVGINKPYALQYDDKLRFNGKPSYRFELKAEDNSLEGYAAGETKGRTELSYSYATTNDFKKFPPSVYQNAQKLKTVYHYGKGICEQGSSRSYTFSVYIPSSFPDNATTIFAQWHGAPSRTLVATPEGEIKTLSIEEFLALYDRMIFKKNIAHDKVEKKDKDGKITYVAGKPNGWKVEQGGYPTLAFGFSKGYFYIKANSDRQWLTDKADRNNANPENSEVMKPYSSEYKTSTIAYKMPFAQFPKDCWITFDVAIDWTKYGKEANTILKPGKLDVMMTYTKNKKPQKAHIVNQQEILIGRNDDDGYYFKFGIYRVGNSTVPVTYNLSGYSETAR | – | 270 µM | 270 µM | 482 ± 3 mM | 92 s⁻¹ | 3.94 µM | 206 µM | NaCl ([4]; listed as wild-type r-heparinase I): about 482 mM
E207A/D210A/D212A: heparinase I CB-1 triple mutant (protein, UniProt Q05819 22-384, looked up, variant E207A D210A D212A) Heparin lyase I: QQKKSGNIPYRVNVQADSAKQKAIIDNKWVAVGINKPYALQYDDKLRFNGKPSYRFELKAEDNSLEGYAAGETKGRTELSYSYATTNDFKKFPPSVYQNAQKLKTVYHYGKGICEQGSSRSYTFSVYIPSSFPDNATTIFAQWHGAPSRTLVATPEGEIKTLSIEEFLALYDRMIFKKNIAHDKVAKKAKAGKITYVAGKPNGWKVEQGGYPTLAFGFSKGYFYIKANSDRQWLTDKADRNNANPENSEVMKPYSSEYKTSTIAYKMPFAQFPKDCWITFDVAIDWTKYGKEANTILKPGKLDVMMTYTKNKKPQKAHIVNQQEILIGRNDDDGYYFKFGIYRVGNSTVPVTYNLSGYSETAR | – | 810 µM | 810 µM | 540 mM | 25 s⁻¹ | 0.73 µM | 151 µM | –
